Values belong to the binder of their own block, whether it stands above or below them.
Experiments:
[1] = molecular target: T1, recombinant human PDGF-BB (human, UniProt P01127 82-190, biotin-labelled in the binding and competition ELISAs (sites not given)); assay: cell-based or functional assay
[2] = molecular target: T1, recombinant human PDGF-BB; assay: Biacore SPR, antibody captured by anti-human Fc, PDGF-BB injected
Protocol: (§1) For example, approximately 9000 RU of goat anti-human Fc specific polyclonal antibody (Thermo Fisher Scientific Inc., Rockford, Ill.) diluted in 10 mM sodium acetate (pH 4.5) is directly immobilized across a CM5 research grade biosensor chip using a standard amine coupling kit according to manufacturer's instructions and procedures at 25 μg/ml. Unreacted moieties on the biosensor surface were blocked with ethanolamine. For kinetic analysis, rate equations derived from the 1:1 Langmuir binding model were fitted simultaneously to multiple antigen injections (using global fit analysis) with the use of Scrubber 2 (BioLogic Software), Biacore Biaevaluation 4.0.1 software or Biacore T100 Evaluation software. Purified antibodies or DVD-Ig molecules were diluted in running buffer for capture across goat anti-human Fc reaction surfaces. Antibodies or DVD-Ig molecules to be captured as a ligand (1 μg/ml) were injected over reaction matrices at a flow rate of 10 μl/minute. During the assay, all measurements were referenced against the capture surface alone (i.e., with no captured antibody or DVD-Ig molecule). […] The equilibrium dissociation constant KD (M) of the reaction between antibodies and the target antigen was then calculated from the kinetic rate constants by the following formula: KD=Koff/Kₒₙ. Binding was recorded as a function of time and kinetic rate constants were calculated.

[3] = molecular target: recombinant human VEGF165 (human, UniProt P15692 207-395); assay: cell-based or functional assay
recombinant human VEGF165, sequence (P15692 other isoform, or with tags, fused parts or gaps limits assumed): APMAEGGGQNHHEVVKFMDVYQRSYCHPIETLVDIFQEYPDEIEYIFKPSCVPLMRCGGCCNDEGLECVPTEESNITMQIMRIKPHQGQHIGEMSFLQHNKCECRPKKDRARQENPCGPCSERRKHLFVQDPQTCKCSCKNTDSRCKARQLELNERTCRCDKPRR

[4] = molecular target: recombinant human PDGF-BB (human, UniProt P01127 82-190); assay: cell-based or functional assay
recombinant human PDGF-BB (human, UniProt P01127 82-190), sequence (P01127 82-190 limits assumed): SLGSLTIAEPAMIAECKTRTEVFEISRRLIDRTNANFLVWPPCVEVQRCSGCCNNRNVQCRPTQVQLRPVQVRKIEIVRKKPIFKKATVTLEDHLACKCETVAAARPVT

Human PDGF-BB [5] = molecular target: T2, Human PDGF-BB (human, UniProt P01127 82-190); assay: cell-based or functional assay
Target sequence in this assay (P01127 82-190 limits assumed): as above

[6] = molecular target: T3, Cynomolgus monkey PDGF-BB (cynomolgus monkey, UniProt P01127 82-190 (human entry), limits assumed); assay: cell-based or functional assay
T3 chain: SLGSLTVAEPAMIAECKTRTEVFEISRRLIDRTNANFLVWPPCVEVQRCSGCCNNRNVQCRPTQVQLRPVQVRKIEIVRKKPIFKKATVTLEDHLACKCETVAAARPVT

Human PDGF-BB [7] = molecular target: T2, Human PDGF-BB; assay: Biacore SPR, antibody captured by anti-human Fc, PDGF-BB as analyte
Protocol: as §1, with “Unreacted” for “For example, approximately 9000 RU of goat anti-human Fc specific polyclonal antibody (Thermo Fisher Scientific Inc., Rockford, Ill.) diluted in 10 mM sodium acetate (pH 4.5) is directly immobilized across a CM5 research grade biosensor chip using a standard amine coupling kit according to manufacturer's instructions and procedures at 25 μg/ml. Unreacted”, “calculated. In this assay, on-rates as fast as 10⁶M⁻¹s⁻¹ and off-rates as slow as 10⁻⁶ s⁻¹ could be measured. […]” for “calculated.”

Human PDGF-BB [8] = molecular target: T2, Human PDGF-BB; assay: competition ELISA: antibody pre-incubated with hPDGF-BB-biotin, binding to coated hPDGF-Rβ-Fc
Protocol: Plates were then washed four times with wash buffer (TBS, 0.05% Tween-20) and blocked with Superblock blocking buffer (Thermo Scientific, cat#37535). During the blocking step, supernatants, antibodies, benchmark compounds or DVD-Ig were diluted in assay diluent (10% Superblock containing 0.05% surfactamps) and an eight point titration of each sample molecule was performed. […] Following incubation, plates were washed four times with wash buffer. Detection reagent Streptavidin-polyHRP-40 (Fitzgerald, cat#65r-s104phrp) was diluted in assay diluent and added to plates (50 μL) for 45 minutes at 25° C. with shaking. Plates were washed four times with wash buffer and developed with the addition of Enhanced K-blue TMB substrate (Neogen, cat#308177). The reaction was stopped with 2N sulfuric acid (VWR, cat# BDH3500-1) and the absorbance was read at 450 nm-570 nm. […] Data was analyzed using Softmax Pro 4.8 software and IC₅₀ values calculated using a sigmoidal dose response (variable slope) fit in GraphPad Prism 5.
Potency was evaluated in both cell-based and ELISA formats.
Target sequence in this assay (P01127 82-190 limits assumed): as the sequence (P01127 82-190 limits assumed) above

T1 sequence (P01127 82-190 limits assumed): as the sequence (P01127 82-190 limits assumed) above

- huPDGF-BB Neutralization Potency (nM) in NIH-3T3 Cells [1]: 2.49 nM
B2: chBFU-3E2 half-body (antibody, V domains shown)
VH: EVQLQQSGPELQRPGASVKLSCKASGYTFTESYMYWVKQRPEQSLELIGRIDPEDGSTDYVEKFKNKATLTADTSSNTAYMQLSSLTSEDSATYFCARFGARSYFYPMDAWGQGTSVTVSS
VL: DTVLTQPPALAVSPGERVSISCRASESVSTLMHWYQQKPGQQPRLLIYGASNLESGVPARFSGSGSGTDFTLTIDPVEADDTATYFCQQSWNDPWTFGGGTKLELK

- huPDGF-BB Neutralization Potency (nM) in NIH-3T3 Cells [1]: > 10 nM
B5: chBDI-1E1 half body (antibody, V domains shown)
VH: EVKLQQSGDELVRPGASVKMSCKASGYTFTDYVMHWVKQSPGQGLEWIGTIIPLIDTTSYNQKFKGKATLTADKSSNTAYMELSRLTSEDSAVYYCARTSPYYYSSYDVMDAWGQGASVTVSS
VL: NIQLTQSPSLLSASVGDRVTLSCKGSQNINNYLAWYQQKLGEAPKLLIYKTNNLQTGIPSRFSGCGSGTDYTLTISSLHSEDLATYYCYQYDNGYTFGAGTKLELK

- hPDGF-BB NIH-3T3 Proliferation IC50 (Human PDGF-BB [5]): 0.056 nM
- cynoPDGF-BB NIH-3T3 Proliferation IC50 [6]: 0.012 nM
- Kd (Human PDGF-BB [7]): 0.24 pM
- kon (Human PDGF-BB [7]): 7.3e+07 M⁻¹ s⁻¹
- IC50 (Human PDGF-BB [8]): 0.059 nM
B7: CL-33701-IgG (antibody, V domains shown)
VH: EVTLRESGPALVKPTQTLTLTCTFSGFSLSTYGMGVGWIRQPPGKALEWLANIWWDDDKYYNPSLKNRLTISKDTSKNQVVLTMTNMDPVDTATYYCARIESLGTSYSFDYWGQGTMVTVSS
VL: EIVLTQSPGTLSLSPGERATLSCERSSGDIWDYYVSWYQQKPGQAPRLVIYADDQRPSGIPDRFSGSGSGTDFTLTISRLEPEDFAVYYCQSYDLFIDVTFGGGTKVEIK

- hPDGF-BB NIH-3T3 Proliferation IC50 (Human PDGF-BB [5]): 0.039 nM
- cynoPDGF-BB NIH-3T3 Proliferation IC50 [6]: 0.018 nM
- Kd (Human PDGF-BB [7]): 0.21 pM
- kon (Human PDGF-BB [7]): 6.8e+07 M⁻¹ s⁻¹
- IC50 (Human PDGF-BB [8]): 0.063 nM
B8: CL-33805-IgG (antibody, V domains shown)
VH: EVTLRESGPALVKPTQTLTLTCTFSGFSLSTYGMGVGWIRQPPGKALEWLANIWWDDDKYYNPSLKNRLTISKDTSKNQVVLTMTNMDPVDTATYYCARIESHWWSYAFDYWGQGTMVTVSS
VL: EIVLTQSPGTLSLSPGERATLSCERSSGSNYDTYVSWYQQKPGQAPRLLIYADDLRASGIPDRFSGSGSGTDFTLTISRLEPEDFAVYYCQSYGIETDIVFGGGTKVEIK

- huPDGF-BB Neutralization Potency (nM) in NIH-3T3 Cells [1]: 1.84 nM
B10: chBDI-9E8 half-body (antibody, V domains shown)
VH: QVTLKESGPGILQPSQTLSLTCTFSGFSLSTYGMGVGWIRQPSGKGLEWLANIWWDDDKYYNPSLKNRLTISKDTSNNQAFLKITNVDTADTATYYCARIESIGTTYSFDYWGQGVMVTVSS
VL: QFTLTQPKSVSGSLRSTITIPCERSSGDIGDSYVSWYQQHLGRPPINVIYADDQRPSEVSDRFSGSIDSSSNSASLTITNLQMDDEADYFCQSYDINIDIVFGGGTKLTVL

Continued, binder first:

B1: chBFU-3E2-B9-B8 (antibody, human IgG1, V domains shown)
VH: EVQLQQSGPELQRPGASVKLSCKASGYTFTESYMYWVKQRPEQSLELIGRIDPEDGSTDYVEKFKNKATLTADTSSNTAYMQLSSLTSEDSATYFCARFGARSYFYPMDAWGQGTSVTVSS
VL: DTVLTQPPALAVSPGERVSISCRASESVSTLMHWYQQKPGQQPRLLIYGASNLESGVPARFSGSGSGTDFTLTIDPVEADDTATYFCQQSWNDPWTFGGGTKLELK
- huPDGF-BB Neutralization Potency (nM) in NIH-3T3 Cells [1]: 0.099 nM
- Kd [2]: ≤ 0.019 nM
- koff [2]: 0.00019 s⁻¹
- kon [2]: ≥ 1e+07 M⁻¹ s⁻¹

B3: chBFU-11A8 half-body (antibody, V domains shown)
VH: EVQLQQSGPELQRPGASVKLSCKASGYTFTESYIYWVKQRPEQSLELIGRIDPEDGSTDYVEKFKNKATLTADTSSNTAYMQLSSLTSEDTATYFCARFGARSYFYPMDAWGQGTSVTVSS
VL: DTVLTQSPTLAVSPGERVSIPCRASESVSTLMHWYQQKPGQQPRLLIYGASNLESGVPARFSGSGSGTDFTLTIDPVEADDTATYFCQQSWNDPWTFGGGTKLELK
- huPDGF-BB Neutralization Potency (nM) in NIH-3T3 Cells [1]: > 10 nM

B4: chBFU-11A8-D6-C3 (antibody, human IgG1, V domains shown)
VH: EVQLQQSGPELQRPGASVKLSCKASGYTFTESYIYWVKQRPEQSLELIGRIDPEDGSTDYVEKFKNKATLTADTSSNTAYMQLSSLTSEDTATYFCARFGARSYFYPMDAWGQGTSVTVSS
VL: DTVLTQSPTLAVSPGERVSIPCRASESVSTLMHWYQQKPGQQPRLLIYGASNLESGVPARFSGSGSGTDFTLTIDPVEADDTATYFCQQSWNDPWTFGGGTKLELK
- huPDGF-BB Neutralization Potency (nM) in NIH-3T3 Cells [1]: 0.086 nM
- Kd [2]: ≤ 0.015 nM
- koff [2]: 0.00015 s⁻¹
- kon [2]: ≥ 1e+07 M⁻¹ s⁻¹

B6: 3E2.1_GS_9E10.1 (PR-1612500) (bispecific antibody, human IgG1, kappa, L234A L235A)
heavy: EVQLVQSGAEVKKPGSSVKVSCKASGYTFTESYMYWVKQAPGQGLELIGRIDPEDGSTDYVEKFKNKATLTADKSTSTAYMELSSLRSEDTAVYFCARFGARSYFYPMDAWGQGTTVTVSSGGGGSGGGGSEIQLVQSGSELKKPGASVKVSCKASGYTFTNYGMYWVKQAPGQGLEYMGWIDTETGRPTYADDFKGRFVFSLDTSVSTAYLQISSLKAEDTAVYFCARWSGDTTGIRGPWFAYWGQGTLVTVSSASTKGPSVFPLAPSSKSTSGGTAALGCLVKDYFPEPVTVSWNSGALTSGVHTFPAVLQSSGLYSLSSVVTVPSSSLGTQTYICNVNHKPSNTKVDKKVEPKSCDKTHTCPPCPAPEAAGGPSVFLFPPKPKDTLMISRTPEVTCVVVDVSHEDPEVKFNWYVDGVEVHNAKTKPREEQYNSTYRVVSVLTVLHQDWLNGKEYKCKVSNKALPAPIEKTISKAKGQPREPQVYTLPPSREEMTKNQVSLTCLVKGFYPSDIAVEWESNGQPENNYKTTPPVLDSDGSFFLYSKLTVDKSRWQQGNVFSCSVMHEALHNAYTQKSLSLSPGK
light: ETVLTQSPATLSLSPGERATLSCRASESVSTLMHWYQQKPGQQPRLLIYGASNLESGVPARFSGSGSGTDFTLTISSLEPEDFAVYFCQQSWNDPWTFGGGTKVEIKGGSGGGGSGGDIRMTQSPSSLSASVGDRVTIECLASEDIYSDLAWYQQKPGKSPKLLIYNANGLQNGVPSRFSGSGSGTDYSLTISSLQPEDVATYFCQQYNYFPGTFGQGTKLEIKRTVAAPSVFIFPPSDEQLKSGTASVVCLLNNFYPREAKVQWKVDNALQSGNSQESVTEQDSKDSTYSLSSTLTLSKADYEKHKVYACEVTHQGLSSPVTKSFNRGEC
- Potency IC50 (nM), HMVEC-d hVEGF165 (proliferation) [3]: 0.133 nM
- Potency IC50 (nM), NIH-3T3 hPDGF-BB (proliferation) [4]: 0.394 nM

B9: CL-33803-IgG (antibody, V domains shown)
VH: EVTLRESGPALVKPTQTLTLTCTFSGFSLSTYGMGVGWIRQPPGKALEWLANIWWDDDKYYNPSLKNRLTISKDTSKNQVVLTMTNMDPVDTATYYCARIESLPTSYSFDYWGQGTMVTVSS
VL: EIVLTQSPGTLSLSPGERATLSCERSSGDIWDTYVSWYQQKPGQAPRLLIYADDQRPSGIPDRFSGSGSGTDFTLTISRLEPEDFAVYYCQSYDIIIDIVFGGGTKVEIK
- hPDGF-BB NIH-3T3 Proliferation IC50 (Human PDGF-BB [5]): 0.024 nM
- cynoPDGF-BB NIH-3T3 Proliferation IC50 [6]: 0.018 nM
- Kd (Human PDGF-BB [7]): ≤ 0.16 pM
- kon (Human PDGF-BB [7]): ≥ 9e+07 M⁻¹ s⁻¹
- IC50 (Human PDGF-BB [8]): 0.044 nM

B11: chBDI-5H1 half-body (antibody, V domains shown)
VH: QVTLKESGPGILQPSQTLSLTCTFSGFSLSTFGMGVGWIRQPSGKGLEWLANIWWDDDKYYNPSLKNRLTISKDTSNSQAFLEITNVDTADTATYYCARISTGISSYYVMDAWGQGASVTVSS
VL: QFTLTQPKSVSGSLRSTITIPCERSSGDIGDTYVSWYQQHLGRPPINVIYGNDQRPSEVSDRFSGSIDSSSNSASLTITNLQMDDEADYFCQSYDSDIDIVFGGGTKLTVL
- huPDGF-BB Neutralization Potency (nM) in NIH-3T3 Cells [1]: > 10 nM

Reference: patent US20170015742A1 (published 2017)
